Experimental data: the RNAGym collection of RNA variant scans (doi:10.1101/gr.219683.116)

B1: mRNA-splicing (parent)
chain: AGUUGCUGCUGGGAGCUCCAGCACAGUGAAAUGGACAGAAGGGCAGAGCAA

Variants of: B1
Experiment: exon inclusion enrichment index; higher = more inclusion; WT1 exon 5 minigene, HEK293

**Q.** With AGUUGACGACGGGAGCUCCAGCACAGUAAAAUGGACAGAAGGGCAGAGCAA [C6A U7C C9A U10C G28A] as the variant, how does the “exon inclusion enrichment index” value read?
**A.** The value was 1.59.

**Q.** Which “exon inclusion enrichment index” value does the source give for AGUUGACGACGGGAGCUCCAGCACAGUUAAAUGGACAGAAGGGCAGAGCAA [C6A U7C C9A U10C G28U] here?
**A.** Its value is 1.34.

**Q.** For AGUUGACGACGGGAGCUCCAGCACAGUCAAAUGGACAGAAGGGCAGAGCAA [C6A U7C C9A U10C G28C], which “exon inclusion enrichment index” value is on record?
**A.** The value was 3.06.

**Q.** Which “exon inclusion enrichment index” value does the source give for AGUUGACGACGGGAUAUCCAGCACAGUGAAAUGGACAGAAGGGCAGAGCAA [C6A U7C C9A U10C G15U C16A] here?
**A.** The value was 2.78.

**Q.** With AGUUGACGACGGGAUUUCCAGCACAGUGAAAUGGACAGAAGGGCAGAGCAA [C6A U7C C9A U10C G15U C16U] as the variant, how does the “exon inclusion enrichment index” value read?
**A.** The value was 3.12.

**Q.** For AGUUGACGACGGGAUGUCCAGCACAGUGAAAUGGACAGAAGGGCAGAGCAA [C6A U7C C9A U10C G15U C16G], which “exon inclusion enrichment index” value is on record?
**A.** Its value is 3.06.

**Q.** With AGUUGACGACGGGAGCUCCAUUACAGUGAAAUGGACAGAAGGGCAGAGCAA [C6A U7C C9A U10C G21U C22U] as the variant, how does the “exon inclusion enrichment index” value read?
**A.** Its value is 1.78.

**Q.** With AGUUGACGACGGGAGCUCCAUGACAGUGAAAUGGACAGAAGGGCAGAGCAA [C6A U7C C9A U10C G21U C22G] as the variant, how does the “exon inclusion enrichment index” value read?
**A.** The value was 3.54.

**Q.** Which “exon inclusion enrichment index” value does the source give for AGUUGACGACGGGAGCUCCAUAACAGUGAAAUGGACAGAAGGGCAGAGCAA [C6A U7C C9A U10C G21U C22A] here?
**A.** The value was 2.02.

**Q.** With AGUUGACGACGGUCGCUCCAGCACAGUGAAAUGGACAGAAGGGCAGAGCAA [C6A U7C C9A U10C G13U A14C] as the variant, how does the “exon inclusion enrichment index” value read?
**A.** The value was 2.46.

**Q.** For AGUUGACGACGGUGGCUCCAGCACAGUGAAAUGGACAGAAGGGCAGAGCAA [C6A U7C C9A U10C G13U A14G], which “exon inclusion enrichment index” value is on record?
**A.** The value was 2.11.

**Q.** For AGUUGACGACGGUUGCUCCAGCACAGUGAAAUGGACAGAAGGGCAGAGCAA [C6A U7C C9A U10C G13U A14U], which “exon inclusion enrichment index” value is on record?
**A.** The value was 2.48.

**Q.** With AGUUGACGACGGGAGCUCCAGCACAGUACAAUGGACAGAAGGGCAGAGCAA [C6A U7C C9A U10C G28A A29C] as the variant, how does the “exon inclusion enrichment index” value read?
**A.** Its value is 2.55.

**Q.** With AGUUGACGACGGGAGCUCCAGCACAGUAGAAUGGACAGAAGGGCAGAGCAA [C6A U7C C9A U10C G28A A29G] as the variant, how does the “exon inclusion enrichment index” value read?
**A.** The value was 1.98.

**Q.** With AGUUGACGACGGGAGCUCCAGCACAGUAUAAUGGACAGAAGGGCAGAGCAA [C6A U7C C9A U10C G28A A29U] as the variant, how does the “exon inclusion enrichment index” value read?
**A.** Its value is 1.29.

**Q.** For AGUUGACGACGGGAGCUCCAUCACAGUGAAAUGGACAGAAGGGCAGAGCAA [C6A U7C C9A U10C G21U], which “exon inclusion enrichment index” value is on record?
**A.** The value was 3.09.

**Q.** Which “exon inclusion enrichment index” value does the source give for AGUUGACGACGGGAGCUCCACCACAGUGAAAUGGACAGAAGGGCAGAGCAA [C6A U7C C9A U10C G21C] here?
**A.** Its value is 3.66.

**Q.** Which “exon inclusion enrichment index” value does the source give for AGUUGACGACGGGAGCUCCAACACAGUGAAAUGGACAGAAGGGCAGAGCAA [C6A U7C C9A U10C G21A] here?
**A.** The value was 3.08.

**Q.** For AGUUGACGACGGGAGCUCCAGCACAGUGAAAUACACAGAAGGGCAGAGCAA [C6A U7C C9A U10C G33A G34C], which “exon inclusion enrichment index” value is on record?
**A.** Its value is 1.06.

**Q.** For AGUUGACGACGGGAGCUCCAGCACAGUGAAAUAAACAGAAGGGCAGAGCAA [C6A U7C C9A U10C G33A G34A], which “exon inclusion enrichment index” value is on record?
**A.** Its value is 0.865.

**Q.** For AGUUGACGACGGGAGCUCCAGCACAGUGAAAUAUACAGAAGGGCAGAGCAA [C6A U7C C9A U10C G33A G34U], which “exon inclusion enrichment index” value is on record?
**A.** Its value is 0.964.

**Q.** Which “exon inclusion enrichment index” value does the source give for AGUUGACGACGGGAGCUCCAGCACAUAGAAAUGGACAGAAGGGCAGAGCAA [C6A U7C C9A U10C G26U U27A] here?
**A.** The value was 2.38.

**Q.** With AGUUGACGACGGGAGCUCCAGCACAUGGAAAUGGACAGAAGGGCAGAGCAA [C6A U7C C9A U10C G26U U27G] as the variant, how does the “exon inclusion enrichment index” value read?
**A.** Its value is 4.12.

**Q.** With AGUUGACGACGGGAGCUCCAGCACAUCGAAAUGGACAGAAGGGCAGAGCAA [C6A U7C C9A U10C G26U U27C] as the variant, how does the “exon inclusion enrichment index” value read?
**A.** Its value is 4.

**Q.** With AGUUGACGACGGGAGCUCCAAUACAGUGAAAUGGACAGAAGGGCAGAGCAA [C6A U7C C9A U10C G21A C22U] as the variant, how does the “exon inclusion enrichment index” value read?
**A.** The value was 2.22.

**Q.** Which “exon inclusion enrichment index” value does the source give for AGUUGACGACGGGAGCUCCAAGACAGUGAAAUGGACAGAAGGGCAGAGCAA [C6A U7C C9A U10C G21A C22G] here?
**A.** Its value is 3.04.

**Q.** With AGUUGACGACGGGAGCUCCAAAACAGUGAAAUGGACAGAAGGGCAGAGCAA [C6A U7C C9A U10C G21A C22A] as the variant, how does the “exon inclusion enrichment index” value read?
**A.** Its value is 2.06.

**Q.** With AGUUGACGACUUGAGCUCCAGCACAGUGAAAUGGACAGAAGGGCAGAGCAA [C6A U7C C9A U10C G11U G12U] as the variant, how does the “exon inclusion enrichment index” value read?
**A.** Its value is 1.57.

**Q.** With AGUUGACGACUAGAGCUCCAGCACAGUGAAAUGGACAGAAGGGCAGAGCAA [C6A U7C C9A U10C G11U G12A] as the variant, how does the “exon inclusion enrichment index” value read?
**A.** Its value is 1.25.

**Q.** For AGUUGACGACUCGAGCUCCAGCACAGUGAAAUGGACAGAAGGGCAGAGCAA [C6A U7C C9A U10C G11U G12C], which “exon inclusion enrichment index” value is on record?
**A.** The value was 1.94.

**Q.** Which “exon inclusion enrichment index” value does the source give for AGUUGACGACGGGAGCUCCAGCACAAAGAAAUGGACAGAAGGGCAGAGCAA [C6A U7C C9A U10C G26A U27A] here?
**A.** Its value is 2.91.

**Q.** For AGUUGACGACGGGAGCUCCAGCACAAGGAAAUGGACAGAAGGGCAGAGCAA [C6A U7C C9A U10C G26A U27G], which “exon inclusion enrichment index” value is on record?
**A.** Its value is 3.54.

**Q.** Which “exon inclusion enrichment index” value does the source give for AGUUGACGACGGGAGCUCCAGCACAACGAAAUGGACAGAAGGGCAGAGCAA [C6A U7C C9A U10C G26A U27C] here?
**A.** Its value is 4.65.

**Q.** With AGUUGACGACGGGAGCUCCAGCACAGUGAAAUUGACAGAAGGGCAGAGCAA [C6A U7C C9A U10C G33U] as the variant, how does the “exon inclusion enrichment index” value read?
**A.** The value was 1.97.

**Q.** Which “exon inclusion enrichment index” value does the source give for AGUUGACGACGGGAGCUCCAGCACAGUGAAAUCGACAGAAGGGCAGAGCAA [C6A U7C C9A U10C G33C] here?
**A.** The value was 3.45.

**Q.** For AGUUGACGACGGGAGCUCCAGCACAGUGAAAUAGACAGAAGGGCAGAGCAA [C6A U7C C9A U10C G33A], which “exon inclusion enrichment index” value is on record?
**A.** Its value is 0.648.

**Q.** Which “exon inclusion enrichment index” value does the source give for AGUUGACGACGGGAGCUCCAGCACACGGAAAUGGACAGAAGGGCAGAGCAA [C6A U7C C9A U10C G26C U27G] here?
**A.** The value was 3.92.

**Q.** Which “exon inclusion enrichment index” value does the source give for AGUUGACGACGGGAGCUCCAGCACACAGAAAUGGACAGAAGGGCAGAGCAA [C6A U7C C9A U10C G26C U27A] here?
**A.** The value was 3.61.

**Q.** For AGUUGACGACGGGAGCUCCAGCACACCGAAAUGGACAGAAGGGCAGAGCAA [C6A U7C C9A U10C G26C U27C], which “exon inclusion enrichment index” value is on record?
**A.** Its value is 4.37.

**Q.** For AGUUGACGACGGAAGCUCCAGCACAGUGAAAUGGACAGAAGGGCAGAGCAA [C6A U7C C9A U10C G13A], which “exon inclusion enrichment index” value is on record?
**A.** Its value is 3.32.

**Q.** Which “exon inclusion enrichment index” value does the source give for AGUUGACGACGGUAGCUCCAGCACAGUGAAAUGGACAGAAGGGCAGAGCAA [C6A U7C C9A U10C G13U] here?
**A.** The value was 1.08.

**Q.** For AGUUGACGACGGCAGCUCCAGCACAGUGAAAUGGACAGAAGGGCAGAGCAA [C6A U7C C9A U10C G13C], which “exon inclusion enrichment index” value is on record?
**A.** Its value is 2.83.

**Q.** Which “exon inclusion enrichment index” value does the source give for AGUUGACGACCUGAGCUCCAGCACAGUGAAAUGGACAGAAGGGCAGAGCAA [C6A U7C C9A U10C G11C G12U] here?
**A.** The value was 2.2.

**Q.** For AGUUGACGACCAGAGCUCCAGCACAGUGAAAUGGACAGAAGGGCAGAGCAA [C6A U7C C9A U10C G11C G12A], which “exon inclusion enrichment index” value is on record?
**A.** Its value is 2.17.

**Q.** For AGUUGACGACCCGAGCUCCAGCACAGUGAAAUGGACAGAAGGGCAGAGCAA [C6A U7C C9A U10C G11C G12C], which “exon inclusion enrichment index” value is on record?
**A.** The value was 2.59.

**Q.** Which “exon inclusion enrichment index” value does the source give for AGUUGACGACGGGAGCUCCAGCACAGUGAAAUUAACAGAAGGGCAGAGCAA [C6A U7C C9A U10C G33U G34A] here?
**A.** The value was 0.907.

**Q.** With AGUUGACGACGGGAGCUCCAGCACAGUGAAAUUCACAGAAGGGCAGAGCAA [C6A U7C C9A U10C G33U G34C] as the variant, how does the “exon inclusion enrichment index” value read?
**A.** The value was 1.4.

**Q.** Which “exon inclusion enrichment index” value does the source give for AGUUGACGACGGGAGCUCCAGCACAGUGAAAUUUACAGAAGGGCAGAGCAA [C6A U7C C9A U10C G33U G34U] here?
**A.** The value was 1.05.

**Q.** Which “exon inclusion enrichment index” value does the source give for AGUUGACGACGGGAGCUCCAGCACAGUGAAAUGCACAGAAGGGCAGAGCAA [C6A U7C C9A U10C G34C] here?
**A.** Its value is 1.79.

**Q.** Which “exon inclusion enrichment index” value does the source give for AGUUGACGACGGGAGCUCCAGCACAGUGAAAUGUACAGAAGGGCAGAGCAA [C6A U7C C9A U10C G34U] here?
**A.** The value was 1.52.

**Q.** With AGUUGACGACGGGAGCUCCAGCACAGUGAAAUGAACAGAAGGGCAGAGCAA [C6A U7C C9A U10C G34A] as the variant, how does the “exon inclusion enrichment index” value read?
**A.** The value was 2.27.
